Two molecules from patent publication US20210230292A1 (DIATHEVA S R L, published 2021) can be followed below.

The experiment concerns the target T1, human CD99ecd/GST (human, UniProt P14209 23-122).
T1 construct: Expressed in E. coli BL21(DE3), purified on Glutathione Sepharose; also called CD99ecd/GST antigen; recombinant CD99; not shown: glutathione-S-transferase as encoded by vector pGEX-2T (GE Healthcare); CD99ecd fused downstream of it through the BamHI
T1 sequence: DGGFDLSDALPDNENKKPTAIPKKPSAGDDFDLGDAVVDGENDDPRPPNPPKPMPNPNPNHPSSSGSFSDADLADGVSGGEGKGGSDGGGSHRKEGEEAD
The experiment can be described thus: competitive ELISA (Rath 1988), CD99ecd/GST coated and soluble CD99ecd/GST as inhibitor. Here is the method:
The binding affinity, expressed as the dissociation constant (kd) of scFv C7, C7dAbd, C7IgG4 and C7IgG1 for CD99, was determined by analysing the saturation of binding at equilibrium with a competitive ELISA assay according to the procedure described in Rath S 1988 with small variations. […] For this purpose, 96-well plates were sensitized by distributing 500 ng/well of CD99ecd/GST diluted in 0.5M carbonate buffer, pH 9.6, and incubating ON at 4° C. After 3 washes with PBS supplemented with 0.05% V/V of Tween20, the plates were blocked with a 1% W/V solution of BSA in PBS (PBSB), pH 7.4, for 60 min. at 37° C. After washing, the plates were incubated for 1 hour at 37° C. with serial dilutions of C7 (from 200 μg/ml to 0.03 μg/ml in triplicate) diluted in PBSB and dispensed (100 μl/well). The plates were incubated at 37° C. for 90 minutes. After washing a dilution of polyclonal anti-scFv diluted 1:500 in PBSB was dispensed, 100 μl/well, and incubated for 60 minutes at 37° C. […]
A competitive ELISA assay was then set up. […] The scFvC7 and C7 diabody signal was determined by dispensing, in a first step, a polyclonal anti-scFv antibody generated in rabbits immunized with scFvC7 and diluted 1:500 v/v in PBSB and subsequently with an anti-rabbit HRP diluted 1:1000 v/v. […]
(An ELISA detects its analyte on a solid surface through an enzyme-linked reagent.)

B1: C7IgG4 (antibody)
heavy: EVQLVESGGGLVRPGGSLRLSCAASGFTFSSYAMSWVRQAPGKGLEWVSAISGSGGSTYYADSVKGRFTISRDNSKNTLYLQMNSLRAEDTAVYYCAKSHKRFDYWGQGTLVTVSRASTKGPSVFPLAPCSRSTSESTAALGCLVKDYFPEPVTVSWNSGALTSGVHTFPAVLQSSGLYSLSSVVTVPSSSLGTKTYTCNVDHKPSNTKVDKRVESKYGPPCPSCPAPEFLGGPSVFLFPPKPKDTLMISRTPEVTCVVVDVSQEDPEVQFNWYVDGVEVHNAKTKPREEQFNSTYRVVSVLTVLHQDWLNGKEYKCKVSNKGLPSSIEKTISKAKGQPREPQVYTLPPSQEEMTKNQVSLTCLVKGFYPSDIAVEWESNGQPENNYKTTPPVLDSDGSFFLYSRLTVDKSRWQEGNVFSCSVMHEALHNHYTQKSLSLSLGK
light: SSELTQDPAVSVALGQTVRITCQGDSLRSYYASWYQQKPGQAPVLVIYGKNNRPSGIPDRFSGSSSGNTASLTITGAQAEDEADYYCNSSFPRTSSVVFGGGTKLTVLGQPKANPTVTLFPPSSEELQANKATLVCLISDFYPGAVTVAWKADGSPVKAGVETTKPSKQSNNKYAASSYLSLTPEQWKSHRSYSCQVTHEGSTVEKTVAPTECS
notes: VH and VL of scFvC7 fused to human IgG4 constant regions; produced in Expi293F cells; also called IgG4wt; C7IgG4 wt
The term Kd denotes the equilibrium constant for the complex coming apart. For the molecule B1, the affinity, expressed as Kd, was 0.00586 µM.

B2: C7IgG1 (antibody)
heavy: not shown
light: SSELTQDPAVSVALGQTVRITCQGDSLRSYYASWYQQKPGQAPVLVIYGKNNRPSGIPDRFSGSSSGNTASLTITGAQAEDEADYYCNSSFPRTSSVVFGGGTKLTVLGQPKANPTVTLFPPSSEELQANKATLVCLISDFYPGAVTVAWKADGSPVKAGVETTKPSKQSNNKYAASSYLSLTPEQWKSHRSYSCQVTHEGSTVEKTVAPTECS
notes: VH and VL of scFvC7 fused to human IgG1 constant regions; produced in Expi293F cells
As for B2, the dissociation constant Kd was determined as 9 µM.
